Where a chain is given by its changes, count along the chain named. Names may count otherwise. Like-named read-outs stand apart in the source and are kept apart here. Values belong to the molecule of their own block, whether it stands above or below them.
Experiments:
[1] = biological target: ΔMIT katanin p60 (E293Q) (Caenorhabditis elegans); assay: solution SAXS
AUC [2] = biological target: the molecule itself; assay: AUC
AUC [3] = biological target: the molecule itself; assay: AUC; remark: listed apart in the source

- stoichiometry N [1]: 6
Molecule: ΔMIT katanin p60 (E293Q) (domain or fragment)

B1: Caenorhabditis elegans katanin p60 (MEI-1), catalytic subunit, wild type (enzyme, UniProt P34808 1-472, looked up)
chain: MNGDVQSVIRGYLERAQVAKTMSDAGRWNEAGDLLRQLMTDVKSCKISASNRDEHDARNTFLRALEANLKLVQQNVRDEDDLHEAMTRQSGSPEPPADPDVWSKPSPPLPSSSKFGATKKGVGAAGPRPREISKSTSSMSTNPADVKPANPTQGILPQNSAGDSFDASAYDAYIVQAVRGTMATNTENTMSLDDIIGMHDVKQVLHEAVTLPLLVPEFFQGLRSPWKAMVLAGPPGTGKTLIARAIASESSSTFFTVSSTDLSSKWRGDSEKIVRLLFELARFYAPSIIFIDEIDTLGGQRGNSGEHEASRRVKSEFLVQMDGSQNKFDSRRVFVLAATNIPWELDEALRRRFEKRIFIPLPDIDARKKLIEKSMEGTPKSDEINYDDLAARTEGFSGADVVSLCRTAAINVLRRYDTKSLRGGELTAAMESLKAELVRNIDFEAALQAVSPSAGPDTMLKCKEWCDSFGAM
- stoichiometry N (AUC [2]): 6

B2: Caenorhabditis elegans katanin p60 (E293Q), Walker B mutant, full-length (enzyme, UniProt P34808 1-472, looked up)
chain: B1 chain with E293Q
- stoichiometry N (AUC [3]): 6

Reference: PMC7152510 (Nature structural & molecular biology, 2017)
